From patent US20100113367A1 (IPSEN PHARMA S A S, published 2010)
Numbered stars: 1 amine (or outer) side, 2 acyl side, 3 side chain; on linkers, the order of the positions; unused ones are H or OH. Bridge positions count the residues as written; N and C are the ends. Square brackets hold non-standard residues; d marks the D form. Pipz(1-CH2CO,4-CH2CH2NH) = O=C(CN1CCN(CCN[*:1])CC1)[*:2]; Tyr(3-I) = N[C@@H](Cc1ccc(O)c(I)c1)C(=O)O; Suc = O=C(CCC(=O)[*:2])[*:1]; Nle = CCCC[C@H](N)C(=O)O; rvGly = not defined here; Glut = not defined here; Abu = CC[C@H](N)C(=O)O; Apn = not defined here; AEEA = NCCOCCOCC(=O)O; Ahx = NCCCCCC(=O)O; GABA = NCCCC(=O)O; βAla = NCCC(=O)O

Assays:
[1] = target: T1, native bombesin/GRP receptor of AR42J rat pancreas cells (rat, UniProt P52500 1-384); assay: radioligand displacement, AR42J rat pancreas cell membranes, tracer [125I-Tyr4]bombesin
T1 construct: whole, on cells; Used as membrane homogenate of AR42J cells; also called bombesin receptor
T1 sequence (P52500 whole entry): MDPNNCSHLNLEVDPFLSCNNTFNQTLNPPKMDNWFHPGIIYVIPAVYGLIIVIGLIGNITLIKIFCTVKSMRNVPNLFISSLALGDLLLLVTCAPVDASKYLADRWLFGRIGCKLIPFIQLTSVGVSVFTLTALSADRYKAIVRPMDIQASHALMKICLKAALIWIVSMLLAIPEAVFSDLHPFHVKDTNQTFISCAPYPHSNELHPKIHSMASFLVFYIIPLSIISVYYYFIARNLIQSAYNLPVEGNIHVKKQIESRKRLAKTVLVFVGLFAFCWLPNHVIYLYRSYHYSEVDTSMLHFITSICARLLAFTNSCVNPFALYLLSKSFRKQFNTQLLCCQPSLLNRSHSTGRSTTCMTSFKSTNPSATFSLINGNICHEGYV
Protocol: The homogenates were washed twice by centrifugation (39,000 g/10 minutes) and the final pellets were resuspended in 50 mM Tris-HCl containing 2.5 mM MgCl₂ and 0.1% BSA. For the assay, aliquots of membrane homogenate (0.4 ml) were incubated with 0.05 nM [¹²⁵I-Tyr4]bombesin (2200 Ci/mmol) (New England Nuclear®, Boston, Mass., U.S.A.) with and without 0.05 ml of unlabeled competing test peptides. After a 30 minute incubation period at 4° C., the bound [¹²⁵I-Tyr4]bombesin was separated from the free bombesin by rapid filtration through GF/B filters (Brandel®, Gaithersburg, Md., U.S.A.) which had been previously soaked in 0.3% polyethyleneimine. The filters were then washed three times with 5-ml aliquots of ice-cold 50 mM Tris-HCl. The bound radioactivity trapped on the filters was counted by gamma spectrometry (Wallac LKB®, Gaithersburg, Md., U.S.A.). Specific binding was defined as the total [¹²⁵I-Tyr4]bombesin bound minus that bound in the presence of 1000 nM bombesin (Bachem®, Torrence, Calif., U.S.A>).

[2] = target: native bombesin/GRP receptor of AR42J rat pancreas cells (rat) (UniProt P52500); assay: as above
Chain of native bombesin/GRP receptor of AR42J rat pancreas cells (rat) (P52500 whole entry): as above

[3] = target: human somatostatin receptor subtype hSSTR-2 (human) (UniProt P30874); assay: radioligand displacement, CHO-K1 hSSTR-2 membranes, tracer m39
Chain of human somatostatin receptor subtype hSSTR-2 (human) (P30874 whole entry): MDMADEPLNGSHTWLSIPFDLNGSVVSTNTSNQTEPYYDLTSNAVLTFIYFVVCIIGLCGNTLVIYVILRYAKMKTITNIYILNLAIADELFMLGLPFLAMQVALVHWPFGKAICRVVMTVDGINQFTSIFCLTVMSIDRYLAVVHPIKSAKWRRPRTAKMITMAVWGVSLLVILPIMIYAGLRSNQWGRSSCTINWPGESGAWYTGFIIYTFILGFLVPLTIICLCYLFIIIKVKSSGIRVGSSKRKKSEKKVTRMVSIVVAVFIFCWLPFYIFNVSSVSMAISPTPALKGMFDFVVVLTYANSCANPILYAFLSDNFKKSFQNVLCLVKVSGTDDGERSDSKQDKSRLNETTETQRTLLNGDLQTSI

[4] = target: human somatostatin receptor subtype hSSTR-5 (human) (UniProt P35346); assay: radioligand displacement, CHO-K1 hSSTR-5 membranes, tracer m40
Chain of human somatostatin receptor subtype hSSTR-5 (human) (P35346 whole entry): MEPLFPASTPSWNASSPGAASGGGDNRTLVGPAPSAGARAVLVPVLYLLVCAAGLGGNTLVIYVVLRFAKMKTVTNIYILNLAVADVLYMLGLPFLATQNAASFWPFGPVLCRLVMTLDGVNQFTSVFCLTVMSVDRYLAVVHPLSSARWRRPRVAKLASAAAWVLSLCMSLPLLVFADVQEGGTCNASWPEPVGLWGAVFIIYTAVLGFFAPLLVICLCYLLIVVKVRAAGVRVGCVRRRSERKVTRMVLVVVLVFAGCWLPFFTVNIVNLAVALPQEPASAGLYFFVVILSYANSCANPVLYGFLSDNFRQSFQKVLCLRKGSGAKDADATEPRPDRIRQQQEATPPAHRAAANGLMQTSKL

[5] = target: human somatostatin receptor subtype hSSTR-3 (human) (UniProt P32745); assay: radioligand displacement, CHO-K1 hSSTR-3 membranes, tracer [125I-Tyr11]SRIF-14
Chain of human somatostatin receptor subtype hSSTR-3 (human) (P32745 whole entry): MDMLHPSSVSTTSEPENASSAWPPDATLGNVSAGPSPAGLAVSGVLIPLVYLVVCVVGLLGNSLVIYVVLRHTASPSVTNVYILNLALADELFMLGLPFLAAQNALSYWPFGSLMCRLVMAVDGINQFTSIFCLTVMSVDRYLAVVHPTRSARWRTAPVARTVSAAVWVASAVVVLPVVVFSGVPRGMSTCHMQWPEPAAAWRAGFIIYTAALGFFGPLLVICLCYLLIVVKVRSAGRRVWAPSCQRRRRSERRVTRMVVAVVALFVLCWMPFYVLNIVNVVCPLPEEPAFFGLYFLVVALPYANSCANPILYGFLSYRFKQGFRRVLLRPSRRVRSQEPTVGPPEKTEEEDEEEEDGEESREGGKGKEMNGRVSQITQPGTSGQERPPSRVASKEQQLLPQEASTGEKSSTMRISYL

B1: Camptothecin-rvGly-Suc-(Doc)4-Aepa-Gaba-D-Ser-D-Tyr-Gln-Trp-Ala-Val-β-Ala-His-Leu-Nle-NH2 (peptide)
peptide: {Camptothecin-rvGly-Suc-AEEA-AEEA-AEEA-AEEA-Pipz(1-CH2CO,4-CH2CH2NH)}-[GABA][dS][dY]QWAV[βAla]HL[Nle]-NH2
modifications: reading uncertain; also: printed as Camptothecin-rvGly-Suc-(Doc)4-Aepa-Gaba-D-Ser-D-Tyr-Gln-Trp-Ala-Val-β-Ala-His-Leu-Nle-NH2
notes: Bombesin analog conjugate
- Ki [1]: 4.82 nM

Binder: Camptothecin-[rvGly][Suc][AEEA][AEEA][AEEA][AEEA][Pipz(1-CH2CO,4-CH2CH2NH)][GABA]NQWAV[βAla]HL[Nle]-NH2 [Camptothecin-rvGly-Suc-(Doc)4-Aepa-Gaba-Asn-Gln-Trp-Ala-Val-β-Ala-His-Leu-Nle-NH2]
- Ki [2]: 7.65 nM

B2: Camptothecin-rvGly-Suc-(Doc)4-Lys-D-Ser-D-Tyr-Gln-Trp-Ala-Val-β-Ala-His-Leu-Nle-NH2 (peptide)
peptide: {Camptothecin-rvGly-Suc-AEEA-AEEA-AEEA-AEEA}-K[dS][dY]QWAV[βAla]HL[Nle]-NH2
modifications: reading uncertain; also: printed as Camptothecin-rvGly-Suc-(Doc)4-Lys-D-Ser-D-Tyr-Gln-Trp-Ala-Val-β-Ala-His-Leu-Nle-NH2
notes: Bombesin analog conjugate
- Ki [1]: 1.45 nM

B3: Camptothecin-rvGly-Suc-(Doc)4-Aepa-D-Ser-D-Tyr-Gln-Trp-Ala-Val-β-Ala-His-Leu-Nle-NH2 (peptide)
peptide: {Camptothecin-rvGly-Suc-AEEA-AEEA-AEEA-AEEA-Pipz(1-CH2CO,4-CH2CH2NH)}-[dS][dY]QWAV[βAla]HL[Nle]-NH2
modifications: reading uncertain; also: printed as Camptothecin-rvGly-Suc-(Doc)4-Aepa-D-Ser-D-Tyr-Gln-Trp-Ala-Val-β-Ala-His-Leu-Nle-NH2
- Ki [2]: 3.96 nM

B4: Camptothecin-rvGly-Suc-(Doc)4-Arg-D-Ala-D-Tyr-Gln-Trp-Ala-Val-β-Ala-His-Leu-Nle-NH2 (peptide)
peptide: {Camptothecin-rvGly-Suc-AEEA-AEEA-AEEA-AEEA}-R[dA][dY]QWAV[βAla]HL[Nle]-NH2
modifications: reading uncertain; also: printed as Camptothecin-rvGly-Suc-(Doc)4-Arg-D-Ala-D-Tyr-Gln-Trp-Ala-Val-β-Ala-His-Leu-Nle-NH2
notes: Bombesin analog conjugate
- Ki [1]: 1.1 nM

Binder: {Camptothecin-rvGly-Glut-AEEA-AEEA-AEEA-AEEA}-K[dY][dY]C[Tyr(3-I)][dW]K[Abu]CT-NH2 (disulfide 4-9; reading uncertain) [Camptothecin-rvGly-Glut-(Doc)4-Lys-D-Tyr-D-Tyr-c(Cys-3-(I)Tyr-D-Trp-Lys-Abu-Cys)-Thr-NH2]
- Ki [3]: 0.1 nM
- Ki [4]: 3.86 nM
- Ki [5]: 94 nM

B5: Camptothecin-rvGly-Suc-(Doc)4-Aepa-Apn-Asn-Gln-Trp-Ala-Val-β-Ala-His-Leu-Nle-NH2 (peptide)
peptide: Camptothecin-[rvGly][Suc][AEEA][AEEA][AEEA][AEEA][Pipz(1-CH2CO,4-CH2CH2NH)][Apn]NQWAV[βAla]HL[Nle]-NH2
modifications: reading uncertain; also: printed as Camptothecin-rvGly-Suc-(Doc)4-Aepa-Apn-Asn-Gln-Trp-Ala-Val-β-Ala-His-Leu-Nle-NH2
- Ki [2]: 4.07 nM

Binder: Camptothecin-[rvGly][Suc][AEEA][AEEA][AEEA][AEEA][Pipz(1-CH2CO,4-CH2CH2NH)][Ahx]QWAV[βAla]HL[Nle]-NH2 [Camptothecin-rvGly-Suc-(Doc)4-Aepa-Ahx-Gln-Trp-Ala-Val-β-Ala-His-Leu-Nle-NH2]
- Ki [2]: 1.9 nM

Binder: Camptothecin-[rvGly][Suc][AEEA][AEEA][AEEA][AEEA][Pipz(1-CH2CO,4-CH2CH2NH)]L[GABA]QWAV[βAla]HL[Nle]-NH2 [Camptothecin-rvGly-Suc-(Doc)4-Aepa-Leu-Gaba-Gln-Trp-Ala-Val-β-Ala-His-Leu-Nle-NH2]
- Ki [2]: 18.2 nM

Binder: {Camptothecin-rvGly-Glut-AEEA-AEEA-AEEA-AEEA}-K[dY][dY]CFF[dW]KTC-NH2 (disulfide 4-10; reading uncertain) [Camptothecin-rvGly-Glut-(Doc)4-Lys-D-Tyr-D-Tyr-c(Cys-Phe-Phe-D-Trp-Lys-Thr-Cys)-NH2]
- Ki [3]: 9.38 nM
- Ki [4]: 481 nM

Binder: Camptothecin-[rvGly][Suc][AEEA][AEEA][AEEA][AEEA][Pipz(1-CH2CO,4-CH2CH2NH)][Nle]QWAV[βAla]HL[Nle]-NH2 [Camptothecin-rvGly-Suc-(Doc)4-Aepa-Nle-Gln-Trp-Ala-Val-β-Ala-His-Leu-Nle-NH2]
- Ki [2]: 4.57 nM

Binder: {Camptothecin-rvGly-Glut-AEEA-AEEA-AEEA-AEEA-AEEA-AEEA}-K[dY][dY]C[Tyr(3-I)][dW]K[Abu]CT-NH2 (disulfide 4-9; reading uncertain) [Camptothecin-rvGly-Glut-(Doc)6-Lys-D-Tyr-D-Tyr-c(Cys-3-(I)Tyr-D-Trp-Lys-Abu-Cys)-Thr-NH2]
- Ki [3]: 0.36 nM
- Ki [4]: 3 nM
- Ki [5]: 125 nM
